Test results from paper PMC2856799.

What was measured:
Insulin (zinc-free) = Insulin (zinc-free) (UniProt P01317); experiment: Composition-gradient static light scattering; conditions: pH 10.0, 25 °C, 0.095 M NaCl, 5.3 mM glycine, 3.2 mM NaOH, scale: log10
[1] = biological target: Insulin (Pekar and Frank 1972 preparation); experiment: Sedimentation equilibrium; conditions: pH 7.0; 24.5 °C; ionic strength 0.1; not stated (pH 7.0); scale: log10; cited from earlier work

Chain of UniProt P01317 (P01317 whole entry): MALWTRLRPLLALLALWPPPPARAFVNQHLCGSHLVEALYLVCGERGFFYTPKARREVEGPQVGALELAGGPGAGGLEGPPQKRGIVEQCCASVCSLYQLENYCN

Row | Substance | log10(Ka) (enhanced isodesmic; monomer addition to dimer and higher oligomers) (Insulin (zinc-free)) | log10(K6a) (stepwise hexamer addition) [1] | log10(K12) (monomer-dimer) [1] | log10(K26) (3 dimers -> hexamer) [1] | log10(Ka) (isodesmic) [1]
1 | Insulin (zinc-free) | 3.82 |  |  |  | 
2 | Insulin (Pekar and Frank 1972 preparation) |  | 3.69 | 5.64 | 8.36 | 4.43
